No end group written: not given here.

Results on one molecule are retold here after patent US8846003.

This assay has as its target collagen. As to the kind of experiment: SPR, Biacore 2000; 1500 RU collagen amine-coupled to CM-3 chip, SILY injected at 100 µM to 1.5 µM; from on-off binding kinetics. Background: Surface plasmon resonance follows binding to a sensor surface in real time, without labels.

As for RRANAALKAGELYKSILYGC-NH2 [peptide …], the Kd (commonly the concentration at which binding is half-saturated) was 1.2 µM.
